Experimental data: patent US20250026849A1 (ARCELLX, published 2025)
Changes are numbered by the printed parent chain. One block for each binder: values may come before it.

Biological target: T1, CD123 (Homo sapiens (Human), UniProt P26951 19-305, limits assumed)
T1 construct: The CD123 construct used in the ELISA is not described; also called CD123-Signal
T1 sequence: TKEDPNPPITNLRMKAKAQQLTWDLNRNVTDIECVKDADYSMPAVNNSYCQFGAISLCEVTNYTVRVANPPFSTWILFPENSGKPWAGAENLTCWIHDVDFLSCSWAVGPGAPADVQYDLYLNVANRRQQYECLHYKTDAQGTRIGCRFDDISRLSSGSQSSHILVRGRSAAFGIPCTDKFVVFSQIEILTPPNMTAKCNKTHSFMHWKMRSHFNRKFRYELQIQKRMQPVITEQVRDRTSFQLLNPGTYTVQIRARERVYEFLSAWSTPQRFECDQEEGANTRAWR
Experiment: ELISA
Design: unit not given here

B1: D domain of SEQ ID NO: 538 (designed binder)
chain: MGSWFMFKQELAWIKEDLEALGGSEAELADFEWDIAEFEWDLQYYKGKGNPEVEALRKEAAAIRDELQAYRHN
ELISA_avg: 7.2

B2: D domain of SEQ ID NO: 539 (designed binder)
chain: B1 chain with F5Q, M6I, Q9G, W13Y, E16Q, D17Y, D30F, W33F, W40E
ELISA_avg: 4.7

B3: D domain of SEQ ID NO: 542 (designed binder)
chain: B1 chain with F5Y, M6Q, Q9T, E16D, D30W, D34V, E37D, W40D, Y44F
ELISA_avg: 6.6

B4: D domain of SEQ ID NO: 555 (designed binder)
chain: MGSWWDFKDWLAEIKHDLEALGGSEAELALFESEIADFEFGLQWYKGKGNPEVEALRKEAAAIRDELQAYRHN
ELISA_avg: 4.2

B7: D domain of SEQ ID NO: 557 (designed binder)
chain: MGSWDFFKYDLANINEWLEALGGSEAELADFEYGIADFELWLQDYKGKGNPEVEALRKEAAAIRDELQAYRHN
ELISA_avg: 5.5

B8: D domain of SEQ ID NO: 547 (designed binder)
chain: MGSWIWFKDWLADIKDLLEALGGSEAELAEFEYDIALFEDQLQAYKGKGNPEVEALRKEAAAIRDELQAYRHN
ELISA_avg: 7.3

B9: D domain of SEQ ID NO: 553 (designed binder)
chain: MGSWHWFKEELAEIKEDLVALGGSEAELAWFEYDIAMFELSLQNYKGKGNPEVEALRKEAAAIRDELQAYRHN
ELISA_avg: 3.1

B10: D domain of SEQ ID NO: 554 (designed binder)
chain: B9 chain with H5N, W6D, E13W, E16F, V19E, Y33E, L40Q, S41Q, N44A
ELISA_avg: 3.8

B13: D domain of SEQ ID NO: 540 (designed binder)
chain: MGSWDFFKEELAEIKHYLEALGGSEAELAFFEFWIADFEQDLQEYKGKGNPEVEALRKEAAAIRDELQAYRHN
ELISA_avg: 3.7

B14: D domain of SEQ ID NO: 541 (designed binder)
chain: B13 chain with D5F, F6N, E13V, H16F, Y17Q, F33W, W34V, Q40D
ELISA_avg: 6.1

B19: D domain of SEQ ID NO: 545 (designed binder)
chain: MGSWWLFKEQLALIKYNLEALGGSEAELADFESWIAEFEHQLQEYKGKGNPEVEALRKEAAAIRDELQAYRHN
ELISA_avg: 4.1

B21: D domain of SEQ ID NO: 552 (designed binder)
chain: MGSWLYFKEYLADIKSDLEALGGSEAELAWFEYEIADFEEQLQYYKGKGNPEVEALRKEAAAIRDELQAYRHN
ELISA_avg: 3.7

B22: D domain of SEQ ID NO: 558 (designed binder)
chain: MGSWYQFKDDLAHIKHLLEALGGSEAELAVFEYIIADFESFLQIYKGKGNPEVEALRKEAAAIRDELQAYRHN
ELISA_avg: 4

B27: D domain of SEQ ID NO: 543 (designed binder)
chain: MGSWFEFKDYLADIKWDLEALGGSEAELAIFEHDIAYFEHNLQQYKGKGNPEVEALRKEAAAIRDELQAYRHN
ELISA_avg: 3.8

B28: D domain of SEQ ID NO: 544 (designed binder)
chain: B27 chain with F5V, E6R, Y10F, W16M, I30D, H33Y, D34H, Y37E, Q44E
ELISA_avg: 5.8

B29: D domain of SEQ ID NO: 559 (designed binder)
chain: MGSWAEFKHDLADIKRELEALGGSEAELAWFELSIAFFEDELQHYKGKGNPEVEALRKEAAAIRDELQAYRHN
ELISA_avg: 3.3

B30: D domain of SEQ ID NO: 537 (designed binder)
chain: MGSWFMFKEELADIKDWLEALGGSEAELASFESYIAWFEQDLQWYKGKGNPEVEALRKEAAAIRDELQAYRHN
ELISA_avg: 5.7

B35: D domain of SEQ ID NO: 548 (designed binder)
chain: MGSWGWFKHELAFIKADLEALGGSEAELAWFEEEIAEFEYELQFYKGKGNPEVEALRKEAAAIRDELQAYRHN
ELISA_avg: 3.3

B36: D domain of SEQ ID NO: 556 (designed binder)
chain: MGSWDEFKEDLAHIKTDLEALGGSEAELALFEDEIADFEMYLQHYKGKGNPEVEALRKEAAAIRDELQAYRHN
ELISA_avg: 6.3

B37: D domain of SEQ ID NO: 549 (designed binder)
chain: MGSWTWFKDNLAWIKEDLEALGGSEAELAWFELEIASFETALQDYKGKGNPEVEALRKEAAAIRDELQAYRHN
ELISA_avg: 6.9

B38: D domain of SEQ ID NO: 550 (designed binder)
chain: B37 chain with W6Y, D9N, N10D, W13G, W30Q, L33F, S37E, T40W, A41L
ELISA_avg: 3.6

B39: D domain of SEQ ID NO: 551 (designed binder)
chain: B35 chain with G5T, H9W, E10D, F13D, A16G, W30F, Y40W, E41R, F44D
ELISA_avg: 5.9

B42: D domain of SEQ ID NO: 560 (designed binder)
chain: MGSWVVFKQDLADINHQLEALGGSEAELAWFEWEIADFEWELQHYKGKGNPEVEALRKEAAAIRDELQAYRHN
ELISA_avg: 3.6

B44: D domain of SEQ ID NO: 546 (designed binder)
chain: MGSWHVFKTELADIKFYLEALGGSEAELAMFELWIAEFEHELQDYKGKGNPEVEALRKEAAAIRDELQAYRHN
ELISA_avg: 5.4

Further lines, results first:

ELISA_avg: 3.4
B5: D domain of SEQ ID NO: 566 (designed binder)
chain: MGSWAEFKQRLAAIKTRLEALGGSEAELAAFMDEIMAFEWELWAYKGKGNPEVEALMNEAFAIDVELYAYRHN

ELISA_avg: 13.7
B6: D domain of SEQ ID NO: 571 (designed binder)
chain: MGSWYEFDMRLDAIWERLTALGGSEAELADFEQYIAEFERQLQDYKGKGNPEVEALFDEAWAIEDELYAYRHN

ELISA_avg: 8.2
B11: D domain of SEQ ID NO: 564 (designed binder)
chain: MGSWTEFKGELAEIKWILEALGGSEAELAFFEDEIAAFEWDLQKYKGKGNPEVEALRKEAAAIRDELQAYRHN

ELISA_avg: 4.3
B12: D domain of SEQ ID NO: 572 (designed binder)
chain: MGSWSEFDSRLDAIAYRLFALGGSEAELAQFEWIIADFEEDLQMYKGKGNPEVEALFSEAYAIEIELNAYRHN

ELISA_avg: 4.6
B15: D domain of SEQ ID NO: 573 (designed binder)
chain: MGSWYEFDDRLDAIAYRLNALGGSEAELAWFEWEIAEFELDLQWYKGKGNPEVEALVWEADAIEWELEAYRHN

ELISA_avg: 4.3
B16: D domain of SEQ ID NO: 568 (designed binder)
chain: MGSWWEFDHRLTAIDTRLQALGGSEAELAEFESSIAEFEWWLQDYKGKGNPEVEALFAEAEAIYVELDAYRHN

ELISA_avg: 3.8
B17: D domain of SEQ ID NO: 574 (designed binder)
chain: MGSWFEFDERLDAIGSRLTALGGSEAELASFEFYIADFEEWLQQYKGKGNPEVEALEWEAFAIDEELGAYRHN

ELISA_avg: 4.6
B18: D domain of SEQ ID NO: 570 (designed binder)
chain: MGSWYEFDHRLDAIYQRLWALGGSEAELAEFEYGIAEFEEYLQDYKGKGNPEVEALISEAWAIEWELSAYRHN

ELISA_avg: 5.2
B20: D domain of SEQ ID NO: 562 (designed binder)
chain: MGSWHWFKEDLAMITDVLEALGGSEAELAAFESEIAVFEADLQYYKGKGNPEVEALRKEAAAIRDELQAYRHN

ELISA_avg: 3.1
B23: D domain of SEQ ID NO: 561 (designed binder)
chain: MGSWFQFKEFLAMITHNLEALGGSEAELAEFEHDIALFESELQQYKGKGNPEVEALRKEAAAIRDELQAYRHN

ELISA_avg: 3.6
B24: D domain of SEQ ID NO: 567 (designed binder)
chain: MGSWAEFKQRLAAIKTRLEALGGSEAELAAFEWEIVAFFSELFAYKGKGNPEVEALRDEAIAIETELVAYRHN

ELISA_avg: 3.6
B25: D domain of SEQ ID NO: 575 (designed binder)
chain: MGSWEEFDQRLDAIDVRLYALGGSEAELAEFEFDIAAFEEWLQLYKGKGNPEVEALNMEAFAITDELCAYRHN

ELISA_avg: 4.1
B26: D domain of SEQ ID NO: 579 (designed binder)
chain: MGSWNEFDDRLLAIWGRLDALGGSEAELAFFEEQIAGFEDELQWYKGKGNPEVEALDQEAEAIEKELWAYRHN

ELISA_avg: 12.9
B31: D domain of SEQ ID NO: 563 (designed binder)
chain: MGSWSWFQWDLAGIKDHLEALGGSEAELAEFESEIAYFEDELQWYKGKGNPEVEALRKEAAAIRDELQAYRHN

ELISA_avg: 3.1
B32: D domain of SEQ ID NO: 569 (designed binder)
chain: MGSWWEFQFRLYAIDQRLLALGGSEAELAEFEQDIADFEWMLQDYKGKGNPEVEALMLEADAIEAELKAYRHN

ELISA_avg: 4.7
B33: D domain of SEQ ID NO: 576 (designed binder)
chain: MGSWEEFDVRLDAIFNRLWALGGSEAELAEFEFDIAWFEMDLQEYKGKGNPEVEALFDEAEAITNELVAYRHN

ELISA_avg: 4.9
B34: D domain of SEQ ID NO: 565 (designed binder)
chain: MGSWFEFKWTLALIKQELEALGGSEAELADFEQEIAEFEWWLQTYKGKGNPEVEALRKEAAAIRDELQAYRHN

ELISA_avg: 6.4
B40: D domain of SEQ ID NO: 581 (designed binder)
chain: MGSWTEFDDRLFAIYWRLDALGGSEAELAWFEEVIAEFENDLQVYKGKGNPEVEALDDEAHAISIELEAYRHN

ELISA_avg: 4.5
B41: D domain of SEQ ID NO: 577 (designed binder)
chain: MGSWEEFDKRLDAITRRLMALGGSEAELAEFESTIAWFEWDLQEYKGKGNPEVEALDWEAYAIDYELGAYRHN

ELISA_avg: 4.5
B43: D domain of SEQ ID NO: 578 (designed binder)
chain: MGSWYEFDHRLEAIYDRLWALGGSEAELAFFEFDIADFEWDLQSYKGKGNPEVEALFDEAAAIGHELLAYRHN

ELISA_avg: 5
B45: D domain of SEQ ID NO: 580 (designed binder)
chain: MGSWVEFDDRLDAIWERLDALGGSEAELAWFEEQIAVFEHQLQDYKGKGNPEVEALNQEAEAIDLELKAYRHN
